{
  "source": "paper PMC2739136",
  "test_in_all_cases": "pull-down",
  "key": {"MBP-TraR S160F, P33905": {"target": "T1, MBP-TraR S160F, P33905", "T1 chain": "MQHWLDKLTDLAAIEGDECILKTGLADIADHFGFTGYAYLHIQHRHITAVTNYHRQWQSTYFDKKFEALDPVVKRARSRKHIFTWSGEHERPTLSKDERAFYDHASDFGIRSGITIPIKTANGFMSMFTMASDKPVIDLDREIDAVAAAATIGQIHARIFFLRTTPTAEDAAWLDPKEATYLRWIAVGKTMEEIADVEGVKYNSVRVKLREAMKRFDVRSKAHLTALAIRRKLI"}, "MBP-TraR R206Q, P33905": {"target": "T2, MBP-TraR R206Q, P33905", "T2 chain": "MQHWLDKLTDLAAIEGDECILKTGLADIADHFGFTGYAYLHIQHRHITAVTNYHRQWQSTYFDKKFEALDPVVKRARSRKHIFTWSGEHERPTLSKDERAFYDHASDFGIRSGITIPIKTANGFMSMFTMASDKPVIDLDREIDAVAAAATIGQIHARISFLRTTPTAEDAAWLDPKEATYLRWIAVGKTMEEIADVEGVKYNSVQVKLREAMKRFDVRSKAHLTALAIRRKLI"}, "MBP-TraR F161K, P33905": {"target": "T3, MBP-TraR F161K, P33905", "T3 chain": "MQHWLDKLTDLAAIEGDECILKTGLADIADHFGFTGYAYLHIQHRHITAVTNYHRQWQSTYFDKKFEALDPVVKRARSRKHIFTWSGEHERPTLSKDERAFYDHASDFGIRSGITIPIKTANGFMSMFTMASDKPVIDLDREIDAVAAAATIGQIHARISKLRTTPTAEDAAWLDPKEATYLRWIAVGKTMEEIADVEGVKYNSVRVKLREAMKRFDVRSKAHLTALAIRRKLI"}, "MBP-TraR N122A, P33905": {"target": "MBP-TraR N122A, P33905"}, "MBP-TraR G153E, P33905": {"target": "T4, MBP-TraR G153E, P33905", "T4 chain": "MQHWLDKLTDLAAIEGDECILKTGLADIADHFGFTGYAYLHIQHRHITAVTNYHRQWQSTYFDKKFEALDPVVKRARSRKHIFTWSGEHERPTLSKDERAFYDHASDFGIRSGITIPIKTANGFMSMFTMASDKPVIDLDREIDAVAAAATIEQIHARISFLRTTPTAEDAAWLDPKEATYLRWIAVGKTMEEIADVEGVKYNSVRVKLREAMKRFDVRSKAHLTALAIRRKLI"}, "MBP-TraR A150V, P33905": {"target": "T5, MBP-TraR A150V, P33905", "T5 chain": "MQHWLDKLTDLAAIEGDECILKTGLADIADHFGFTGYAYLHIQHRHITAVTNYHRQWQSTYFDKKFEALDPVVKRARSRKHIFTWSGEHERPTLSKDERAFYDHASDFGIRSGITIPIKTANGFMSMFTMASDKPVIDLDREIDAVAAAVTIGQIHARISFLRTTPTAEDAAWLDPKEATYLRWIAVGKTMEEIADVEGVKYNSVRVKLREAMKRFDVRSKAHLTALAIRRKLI"}, "MBP-TraR Q154E, P33905": {"target": "T6, MBP-TraR Q154E, P33905", "T6 chain": "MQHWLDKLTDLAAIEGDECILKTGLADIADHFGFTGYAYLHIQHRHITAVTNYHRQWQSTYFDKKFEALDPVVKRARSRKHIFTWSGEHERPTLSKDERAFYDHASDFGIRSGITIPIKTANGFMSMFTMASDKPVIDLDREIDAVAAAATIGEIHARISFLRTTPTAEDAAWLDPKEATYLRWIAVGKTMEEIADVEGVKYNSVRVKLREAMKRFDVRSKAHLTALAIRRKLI"}, "MBP-TraR A150E, P33905": {"target": "T7, MBP-TraR A150E, P33905", "T7 chain": "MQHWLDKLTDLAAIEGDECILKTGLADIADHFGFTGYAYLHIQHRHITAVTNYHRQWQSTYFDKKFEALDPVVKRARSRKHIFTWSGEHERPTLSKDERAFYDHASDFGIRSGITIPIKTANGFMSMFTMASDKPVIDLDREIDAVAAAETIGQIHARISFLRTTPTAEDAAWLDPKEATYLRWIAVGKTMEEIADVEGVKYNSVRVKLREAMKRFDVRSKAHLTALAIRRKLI"}},
  "data": [
    {"protein": "native TraR (wild type) (protein) MQHWLDKLTDLAAIEGDECILKTGLADIADHFGFTGYAYLHIQHRHITAVTNYHRQWQSTYFDKKFEALDPVVKRARSRKHIFTWSGEHERPTLSKDERAFYDHASDFGIRSGITIPIKTANGFMSMFTMASDKPVIDLDREIDAVAAAATIGQIHARISFLRTTPTAEDAAWLDPKEATYLRWIAVGKTMEEIADVEGVKYNSVRVKLREAMKRFDVRSKAHLTALAIRRKLI", "values": [
      {"measurement": "heterodimer formation (% of wild type) (% of wild type)", "setting": "MBP-TraR S160F, P33905", "value": 69},
      {"measurement": "heterodimer formation (% of wild type) (% of wild type)", "setting": "MBP-TraR R206Q, P33905", "value": 71},
      {"measurement": "heterodimer formation (% of wild type) (% of wild type)", "setting": "MBP-TraR F161K, P33905", "value": 39},
      {"measurement": "heterodimer formation (% of wild type) (% of wild type)", "setting": "MBP-TraR N122A, P33905", "value": 28},
      {"measurement": "heterodimer formation (% of wild type) (% of wild type)", "setting": "MBP-TraR G153E, P33905", "value": 19},
      {"measurement": "heterodimer formation (% of wild type) (% of wild type)", "setting": "MBP-TraR A150V, P33905", "value": 15},
      {"measurement": "heterodimer formation (% of wild type) (% of wild type)", "setting": "MBP-TraR Q154E, P33905", "value": 25},
      {"measurement": "heterodimer formation (% of wild type) (% of wild type)", "setting": "MBP-TraR A150E, P33905", "value": 14}
    ]}
  ]
}
